Earlier results, collected in PMC8438204, “Unraveling the Thermodynamics of Ultra-tight Binding of Intrinsically Disordered Proteins” (Frontiers in Molecular Biosciences, 2021).

Target: prothymosin α (Homo sapiens) (UniProt P06454)
Sequence (P06454 2-111): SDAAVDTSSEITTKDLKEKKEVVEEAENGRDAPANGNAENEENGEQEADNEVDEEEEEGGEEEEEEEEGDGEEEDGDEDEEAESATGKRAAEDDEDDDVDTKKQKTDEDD

histone H1, sequence (P07305 2-194): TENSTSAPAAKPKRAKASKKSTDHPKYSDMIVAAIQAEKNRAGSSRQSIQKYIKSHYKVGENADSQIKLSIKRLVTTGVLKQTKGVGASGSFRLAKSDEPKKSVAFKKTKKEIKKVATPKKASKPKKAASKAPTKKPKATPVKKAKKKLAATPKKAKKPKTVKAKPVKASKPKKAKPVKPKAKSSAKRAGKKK

histone H1 (from UniProt P07305)
Kd: 2 pM
